Where two headings read alike, the source gives them in different places.
B1: OMS721 (hIgG4 kappa) (antibody, V domains shown)
VH: QVTLKESGPVLVKPTETLTLTCTVSGFSLSRGKMGVSWIRQPPGKALEWLAHIFSSDEKSYRTSLKSRLTISKDTSKNQVVLTMTNMDPVDTATYYCARIRRGGIDYWGQGTLVTVSS
VL: QPVLTQPPSLSVSPGQTASITCSGEKLGDKYAYWYQQKPGQSPVLVMYQDKQRPSGIPERFSGSNSGNTATLTISGTQAMDEADYYCQAWDSSTAVFGGGTKLTVLR
notes: Benchmark antibody with the variable regions of OMS721 (Narsoplimab) and the constant region of human IgG4; also called OMS721-analog
B2: 160D10 (hybridoma antibody, mouse) (antibody, V domains shown)
VH: QVQLQQSGPELVKPGASVKISCKASGYTFTDYYINWVKQRPGQGLEWVGWIFPGSDSAYYNEKFKGKATLTVDTSSSTAYMLLSSLTSEDSAVYFCARGDRSGPFPYWGQGTLVTVSA
VL: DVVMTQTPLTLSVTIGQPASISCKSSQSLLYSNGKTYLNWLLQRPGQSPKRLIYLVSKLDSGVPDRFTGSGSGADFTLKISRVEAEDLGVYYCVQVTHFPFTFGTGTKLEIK
notes: Mouse monoclonal antibody purified from hybridoma supernatant; also called 160D10 mouse/chimeric
B3: 160D10chiIgG4 (chimeric 160D10, human IgG4 kappa) (antibody, V domains shown)
VH: QVQLQQSGPELVKPGASVKISCKASGYTFTDYYINWVKQRPGQGLEWVGWIFPGSDSAYYNEKFKGKATLTVDTSSSTAYMLLSSLTSEDSAVYFCARGDRSGPFPYWGQGTLVTVSA
VL: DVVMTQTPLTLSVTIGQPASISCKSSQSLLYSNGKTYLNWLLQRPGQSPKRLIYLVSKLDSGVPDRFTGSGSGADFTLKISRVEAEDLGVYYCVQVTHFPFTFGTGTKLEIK
notes: also called 160D10 mouse/chimeric
B4: 125D5G1G2 (hybridoma antibody 125D5, mouse) (antibody, V domains shown)
VH: QVQLQQSGPDLVKPGTSVKISCTASGYTFTDYYINWVKQRPGQGLEWIGWIFPGSGSPYYNENFKGRAMFTVDYSSSSAYMLLSSLTSEDSAVYFCTRGDRSGPFAYWGQGTLVTVSA
VL: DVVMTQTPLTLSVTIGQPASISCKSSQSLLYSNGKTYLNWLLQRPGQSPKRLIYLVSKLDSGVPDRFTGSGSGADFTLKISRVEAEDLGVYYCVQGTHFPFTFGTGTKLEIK
notes: Mouse monoclonal antibody purified from hybridoma supernatant; The label 125D5G1G2 is read as a subclone of 125D5; also called 125D5 mouse/chimeric
B5: 125D5chiIgG4 (chimeric 125D5, human IgG4 kappa) (antibody, V domains shown)
VH: QVQLQQSGPDLVKPGTSVKISCTASGYTFTDYYINWVKQRPGQGLEWIGWIFPGSGSPYYNENFKGRAMFTVDYSSSSAYMLLSSLTSEDSAVYFCTRGDRSGPFAYWGQGTLVTVSA
VL: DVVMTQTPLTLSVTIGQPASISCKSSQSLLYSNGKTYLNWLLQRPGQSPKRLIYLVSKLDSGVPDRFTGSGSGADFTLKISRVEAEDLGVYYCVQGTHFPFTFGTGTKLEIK
notes: also called 125D5chilgG4; 125D5 mouse/chimeric
B6: 129C10H2C1 (hybridoma antibody 129C10, mouse) (antibody, V domains shown)
VH: QVQLQQSGPELEKPGTSVKISCEASGYTFTDYYINWVQQRPGQGLEWIGWIFPGSESAYHSEKFKAKATLTVDTSSTTAYMLLTSLTSEDSAVYFCTRGDRSGPFAYWGQGTLVTVSA
VL: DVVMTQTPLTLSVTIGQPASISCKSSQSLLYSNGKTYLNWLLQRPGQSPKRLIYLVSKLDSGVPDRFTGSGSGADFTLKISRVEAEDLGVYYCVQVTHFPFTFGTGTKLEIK
notes: Mouse monoclonal antibody purified from hybridoma supernatant; The label 129C10H2C1 is read as a subclone of 129C10; also called 129C10 mouse/chimeric
B7: 129C10chiIgG4 (chimeric 129C10, human IgG4 kappa) (antibody, V domains shown)
VH: QVQLQQSGPELEKPGTSVKISCEASGYTFTDYYINWVQQRPGQGLEWIGWIFPGSESAYHSEKFKAKATLTVDTSSTTAYMLLTSLTSEDSAVYFCTRGDRSGPFAYWGQGTLVTVSA
VL: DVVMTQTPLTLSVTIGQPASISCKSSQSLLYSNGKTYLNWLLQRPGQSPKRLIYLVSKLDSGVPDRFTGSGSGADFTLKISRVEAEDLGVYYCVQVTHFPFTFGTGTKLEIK
notes: also called 129C10 mouse/chimeric
B8: 129C10 HdLb (antibody, human IgG4, V domains shown)
VH: QVQLVQSGAEVKKPGASVKVSCKASGYTFTDYYINWVRQAPGQGLEWMGWIFPGSESAYHSQKFQGRATLTVDTSISTAYMELSRLRSDDTAVYYCTRGDRSGPFAYWGQGTLVTVSS
VL: DVVMTQSPLSLPVTLGQPASISCKSSQSLLYSNGKTYLNWLQQRPGQSPRRLIYLVSKLDSGVPDRFSGSGSGADFTLKISRVEAEDVGVYYCVQVTHFPFTFGQGTKLEIK
notes: Humanized
B9: 129C10 HcLa (antibody, human IgG4, V domains shown)
VH: QVQLVQSGAEVKKPGASVKVSCKASGYTFTDYYINWVRQAPGQGLEWMGWIFPGSESAYHSQKFQGRVTMTVDTSISTAYMELSRLRSDDTAVYYCTRGDRSGPFAYWGQGTLVTVSS
VL: DVVMTQSPLSLPVTLGQPASISCKSSQSLLYSNGKTYLNWLQQRPGQSPRRLIYLVSKLDSGVPDRFSGSGSGTDFTLKISRVEAEDVGVYYCVQVTHFPFTFGQGTKLEIK
notes: Humanized
B10: 129C10 HaLb (antibody, human IgG4, V domains shown)
VH: QVQLVQSGAEVKKPGASVKVSCKASGYTFTDYYINWVRQAPGQGLEWMGWIFPGSESAYHSEKFKARVTMTVDTSISTAYMELSRLRSDDTAVYYCTRGDRSGPFAYWGQGTLVTVSS
VL: DVVMTQSPLSLPVTLGQPASISCKSSQSLLYSNGKTYLNWLQQRPGQSPRRLIYLVSKLDSGVPDRFSGSGSGADFTLKISRVEAEDVGVYYCVQVTHFPFTFGQGTKLEIK
notes: Humanized
B11: 129C10 HbLb (antibody, human IgG4, V domains shown)
VH: QVQLVQSGAEVKKPGASVKVSCKASGYTFTDYYINWVRQAPGQGLEWMGWIFPGSESAYHSEKFKARATLTVDTSISTAYMELSRLRSDDTAVYYCTRGDRSGPFAYWGQGTLVTVSS
VL: DVVMTQSPLSLPVTLGQPASISCKSSQSLLYSNGKTYLNWLQQRPGQSPRRLIYLVSKLDSGVPDRFSGSGSGADFTLKISRVEAEDVGVYYCVQVTHFPFTFGQGTKLEIK
notes: Humanized
B12: 129C10 HbLa (antibody, human IgG4, V domains shown)
VH: QVQLVQSGAEVKKPGASVKVSCKASGYTFTDYYINWVRQAPGQGLEWMGWIFPGSESAYHSEKFKARATLTVDTSISTAYMELSRLRSDDTAVYYCTRGDRSGPFAYWGQGTLVTVSS
VL: DVVMTQSPLSLPVTLGQPASISCKSSQSLLYSNGKTYLNWLQQRPGQSPRRLIYLVSKLDSGVPDRFSGSGSGTDFTLKISRVEAEDVGVYYCVQVTHFPFTFGQGTKLEIK
notes: Humanized
B13: 129C10 HcLb (antibody, human IgG4, V domains shown)
VH: QVQLVQSGAEVKKPGASVKVSCKASGYTFTDYYINWVRQAPGQGLEWMGWIFPGSESAYHSQKFQGRVTMTVDTSISTAYMELSRLRSDDTAVYYCTRGDRSGPFAYWGQGTLVTVSS
VL: DVVMTQSPLSLPVTLGQPASISCKSSQSLLYSNGKTYLNWLQQRPGQSPRRLIYLVSKLDSGVPDRFSGSGSGADFTLKISRVEAEDVGVYYCVQVTHFPFTFGQGTKLEIK
notes: Humanized
B14: 129C10 HdLa (antibody, human IgG4, V domains shown)
VH: QVQLVQSGAEVKKPGASVKVSCKASGYTFTDYYINWVRQAPGQGLEWMGWIFPGSESAYHSQKFQGRATLTVDTSISTAYMELSRLRSDDTAVYYCTRGDRSGPFAYWGQGTLVTVSS
VL: DVVMTQSPLSLPVTLGQPASISCKSSQSLLYSNGKTYLNWLQQRPGQSPRRLIYLVSKLDSGVPDRFSGSGSGTDFTLKISRVEAEDVGVYYCVQVTHFPFTFGQGTKLEIK
notes: Humanized

Assays:
[1] = target: T1, Rat MASP2 (rat, UniProt Q9JJS8); assay: ELISA; plate coated with rat MASP2 (1 ug/ml), serially diluted antibody, mouse anti-human IgG4 Fc HRP, OD450
T1 construct: purchased protein coated on the ELISA plate at 1 ug/ml
T1 sequence (Q9JJS8 20-685 limits assumed): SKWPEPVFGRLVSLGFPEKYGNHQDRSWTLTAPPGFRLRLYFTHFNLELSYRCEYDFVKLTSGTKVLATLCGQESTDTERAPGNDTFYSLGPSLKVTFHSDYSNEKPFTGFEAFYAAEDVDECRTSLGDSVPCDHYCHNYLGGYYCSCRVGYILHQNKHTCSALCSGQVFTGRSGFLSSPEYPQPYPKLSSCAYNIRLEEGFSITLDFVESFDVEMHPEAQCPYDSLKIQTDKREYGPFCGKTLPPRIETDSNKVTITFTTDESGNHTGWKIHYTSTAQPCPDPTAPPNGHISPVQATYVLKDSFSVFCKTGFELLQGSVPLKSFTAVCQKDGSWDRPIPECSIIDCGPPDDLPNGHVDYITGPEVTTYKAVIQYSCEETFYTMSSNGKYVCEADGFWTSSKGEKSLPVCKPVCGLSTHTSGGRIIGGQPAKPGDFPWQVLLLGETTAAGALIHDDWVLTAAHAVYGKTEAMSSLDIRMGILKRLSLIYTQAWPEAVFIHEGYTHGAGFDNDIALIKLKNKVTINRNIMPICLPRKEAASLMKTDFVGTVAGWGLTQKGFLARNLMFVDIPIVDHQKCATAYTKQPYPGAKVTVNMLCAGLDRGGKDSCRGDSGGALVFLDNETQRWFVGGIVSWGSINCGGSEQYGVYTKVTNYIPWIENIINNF

[2] = target: T2, Mouse MASP2 (mouse, UniProt Q91WP0); assay: ELISA; plate coated with mouse MASP2 (1 ug/ml), serially diluted antibody, mouse anti-human IgG4 Fc HRP, OD450
T2 construct: purchased protein coated on the ELISA plate at 1 ug/ml
T2 sequence (Q91WP0 20-685 limits assumed): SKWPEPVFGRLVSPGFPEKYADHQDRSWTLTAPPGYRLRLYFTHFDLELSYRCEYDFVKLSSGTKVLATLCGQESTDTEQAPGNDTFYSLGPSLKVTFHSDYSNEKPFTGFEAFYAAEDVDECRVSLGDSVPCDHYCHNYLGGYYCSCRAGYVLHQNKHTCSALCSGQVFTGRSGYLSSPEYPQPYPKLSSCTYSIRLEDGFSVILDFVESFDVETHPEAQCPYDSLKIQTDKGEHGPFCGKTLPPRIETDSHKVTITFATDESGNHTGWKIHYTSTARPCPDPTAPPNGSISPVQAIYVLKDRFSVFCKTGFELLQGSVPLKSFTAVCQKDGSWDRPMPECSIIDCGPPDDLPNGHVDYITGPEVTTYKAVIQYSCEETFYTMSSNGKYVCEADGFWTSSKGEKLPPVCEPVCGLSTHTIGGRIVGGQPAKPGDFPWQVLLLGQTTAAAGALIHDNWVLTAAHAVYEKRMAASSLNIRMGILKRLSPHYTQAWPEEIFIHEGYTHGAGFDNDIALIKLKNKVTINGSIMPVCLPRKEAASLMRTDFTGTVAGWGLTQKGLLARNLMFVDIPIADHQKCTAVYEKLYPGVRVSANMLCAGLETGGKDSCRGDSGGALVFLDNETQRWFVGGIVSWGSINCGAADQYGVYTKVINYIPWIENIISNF

[3] = target: T3, Cyno MASP2; assay: ELISA; plate coated with cynomolgus MASP2 (1 ug/ml), serially diluted antibody, mouse anti-human IgG4 Fc HRP, OD450
T3 construct: Recombinant coated protein; distinct from m29 (native MASP-2 in cynomolgus serum); also called cynomolgus MASP-2 (recombinant, generated in house)
T3 sequence (MASP-2 polypeptide, as listed by the source limits assumed): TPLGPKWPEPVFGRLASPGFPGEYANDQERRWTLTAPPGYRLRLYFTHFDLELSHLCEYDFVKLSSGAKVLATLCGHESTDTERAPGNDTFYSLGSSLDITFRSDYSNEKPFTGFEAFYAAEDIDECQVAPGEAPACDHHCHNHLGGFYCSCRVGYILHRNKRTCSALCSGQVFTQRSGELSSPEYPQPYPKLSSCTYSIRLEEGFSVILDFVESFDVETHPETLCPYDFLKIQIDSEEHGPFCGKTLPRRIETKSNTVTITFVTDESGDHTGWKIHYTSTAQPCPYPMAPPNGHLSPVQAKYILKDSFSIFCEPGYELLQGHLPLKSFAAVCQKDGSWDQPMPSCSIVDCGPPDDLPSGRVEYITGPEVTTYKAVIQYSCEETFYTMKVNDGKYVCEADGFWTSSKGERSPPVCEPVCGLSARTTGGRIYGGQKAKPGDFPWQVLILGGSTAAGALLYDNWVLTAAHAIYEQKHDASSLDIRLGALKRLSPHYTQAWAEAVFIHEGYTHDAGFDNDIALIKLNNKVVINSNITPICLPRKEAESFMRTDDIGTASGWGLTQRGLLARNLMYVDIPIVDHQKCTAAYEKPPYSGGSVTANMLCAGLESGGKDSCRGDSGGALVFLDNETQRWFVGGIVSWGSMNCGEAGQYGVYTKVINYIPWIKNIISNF

[4] = target: T4, human MASP-2 protein (recombinant, full-length, C-terminal tag) (human, UniProt O00187 16-686); assay: BLI (ForteBio Octet RED96), antibody on Protein A biosensor, human MASP-2 in solution (100, 50, 25 nM)
T4 construct: The protein was secreted and purified on an anti-FLAG or anti-HIS column; also called hMASP-2; Full-length human MASP-2 protein; not shown: C-terminal HIS-tag or FLAG-tag
T4 sequence (O00187 16-686): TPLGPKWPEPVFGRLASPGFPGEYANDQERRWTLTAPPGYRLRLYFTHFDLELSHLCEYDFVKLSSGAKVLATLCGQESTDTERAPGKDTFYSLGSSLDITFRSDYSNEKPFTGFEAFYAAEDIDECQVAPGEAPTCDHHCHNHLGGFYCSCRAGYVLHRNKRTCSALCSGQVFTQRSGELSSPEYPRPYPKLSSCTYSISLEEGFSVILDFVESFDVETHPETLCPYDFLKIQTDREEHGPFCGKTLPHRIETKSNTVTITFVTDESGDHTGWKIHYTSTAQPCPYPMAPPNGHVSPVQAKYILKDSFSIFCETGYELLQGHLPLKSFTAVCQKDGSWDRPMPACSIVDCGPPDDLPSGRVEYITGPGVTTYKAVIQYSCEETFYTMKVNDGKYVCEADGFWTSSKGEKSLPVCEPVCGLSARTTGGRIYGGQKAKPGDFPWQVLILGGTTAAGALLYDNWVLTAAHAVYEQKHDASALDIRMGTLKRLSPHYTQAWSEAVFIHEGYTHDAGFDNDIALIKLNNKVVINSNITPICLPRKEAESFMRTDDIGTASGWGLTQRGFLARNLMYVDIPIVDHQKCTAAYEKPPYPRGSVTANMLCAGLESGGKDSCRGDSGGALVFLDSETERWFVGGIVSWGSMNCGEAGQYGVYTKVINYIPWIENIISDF

[5] = target: T4, human MASP-2 protein (recombinant, …); assay: as above; remark: listed apart in the source

Kd [5] | koff [5] | kon [5] | further results | Binder
– | – | – | EC50 [1]: 12.3 µg/mL; EC50 [2]: 4.91 µg/mL; EC50 [3]: 0.0181 µg/mL | B1
– | – | – | Kd [4]: 27.8 nM; koff [4]: 0.001 s⁻¹; kon [4]: 36100 M⁻¹ s⁻¹ | B2
0.984 nM | 3.34e-05 s⁻¹ | 34000 M⁻¹ s⁻¹ | – | B3
– | – | – | Kd [4]: 1.64 nM; koff [4]: 9.73e-05 s⁻¹; kon [4]: 59400 M⁻¹ s⁻¹ | B4
19.5 nM | 0.000499 s⁻¹ | 25600 M⁻¹ s⁻¹ | – | B5
– | – | – | Kd [4]: 0.746 nM; koff [4]: 4.78e-05 s⁻¹; kon [4]: 64000 M⁻¹ s⁻¹ | B6
8.02 nM | 0.000206 s⁻¹ | 25700 M⁻¹ s⁻¹ | – | B7
< 0.001 nM | < 1e-07 s⁻¹ | 36000 M⁻¹ s⁻¹ | – | B8
< 0.001 nM | < 1e-07 s⁻¹ | 35200 M⁻¹ s⁻¹ | – | B9
11.4 nM | 0.000291 s⁻¹ | 25500 M⁻¹ s⁻¹ | – | B10
< 0.001 nM | < 1e-07 s⁻¹ | 32900 M⁻¹ s⁻¹ | – | B11
< 0.001 nM | < 1e-07 s⁻¹ | 32900 M⁻¹ s⁻¹ | – | B12
1.36 nM | 4.56e-05 s⁻¹ | 33700 M⁻¹ s⁻¹ | – | B13
17.1 nM | 0.000425 s⁻¹ | 24900 M⁻¹ s⁻¹ | – | B14

From US20240309113A1 (SUZHOU TRANSCENTA THERAPEUTICS, published 2024)
